Substance,relative rate of pPSA activation by hK2 (HIC-HPLC) ([-4]pPSA),relative rate of pPSA activation by hK2 (HIC-HPLC) ([-5]pPSA),relative rate of pPSA activation by hK2 (HIC-HPLC) ([-2]pPSA),relative rate of pPSA activation by hK2 (HIC-HPLC) ([-7]pPSA),cleavage of the pro leader by trypsin (N-terminal sequencing) ([-2]pPSA)
human kallikrein 2 (hK2),the [-4]pPSA was activated more slowly,The [5/-7]pPSA was activated most rapidly,[-2]pPSA was not activated by hK2,The [5/-7]pPSA was activated most rapidly,
trypsin,,,,,there was little or no cleavage to release the SR dipeptide of the [-2]pPSA (data not shown)

# — patent publication US7659073
